Three molecules from patent US20090175886A1 (Bristol-Myers Squibb, published 2009) can be followed below.

Several values for one entry are separate records, joined by “and”; a condition that tells them apart may be missing. Equal entries are not always repeated.

For assay [1], the target named is human CD30 expressed on cells (L540, L428, L1236, Karpas cell lines; activated human peripheral blood cells) (human) (UniProt P28908). The assay is described as follows: flow cytometry on CD30-expressing L540 cells, FITC anti-human secondary antibody.
The target of assay [2] is human FcRgammaIIIa, Phe^158 allotype (human) (UniProt P08637). Nature of the assay: SPR (Biacore): mAb captured on a surface coated with recombinant human CD30, FcRγIIIa Phe158 (CD16-Phe) flowed over, equilibrium signal fitted to a one-site model; Binding Constants (nM).
human FcRgammaIIIa, Phe^158 allotype (human), sequence (P08637 17-208 limits assumed): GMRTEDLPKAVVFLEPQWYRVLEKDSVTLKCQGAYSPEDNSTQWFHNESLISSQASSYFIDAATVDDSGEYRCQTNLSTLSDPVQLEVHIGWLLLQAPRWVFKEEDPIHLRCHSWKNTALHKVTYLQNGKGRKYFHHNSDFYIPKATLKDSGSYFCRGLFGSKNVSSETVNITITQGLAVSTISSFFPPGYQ
In assay [3] the target is human CD30 expressed on cells (L540, L428, L1236, Karpas cell lines; activated human peripheral blood cells) (human) (UniProt P28908). Nature of the assay: Scatchard analysis, 125I-labelled antibody on L540 cells.
The target is the same in assay [4]. The assay is described as follows: Scatchard analysis (Bmax), 125I-labelled antibody on L540 cells.
Assay [5] addresses cynomolgus CD30 on PHA, Con A and rIL-2 activated cynomolgus peripheral blood mononuclear cells (cynomolgus monkey). The assay is described as follows: Scatchard analysis, 125I-labelled antibody on PHA/Con A/IL-2 activated cynomolgus peripheral blood mononuclear cells.
Assay [6] concerns the target human CD30 expressed on cells (L540, L428, L1236, Karpas cell lines; activated human peripheral blood cells) (human) (UniProt P28908). Nature of the assay: Scatchard analysis, 125I-labelled antibody on PHA/Con A/IL-2 activated human peripheral blood cells.
Assay [7] has the same target. The assay is described as follows: Scatchard analysis (Bmax), 125I-labelled antibody on activated human peripheral blood cells.
Assay [8] has the same target. The assay is described as follows: cell-based or functional assay.
Assay [9] has as its target cynomolgus CD30 on PHA, Con A and rIL-2 activated cynomolgus peripheral blood mononuclear cells (cynomolgus monkey). The assay is described as follows: Scatchard analysis (Bmax), 125I-labelled antibody on activated cynomolgus peripheral blood mononuclear cells.
The target in assay [10] is human FcRgammaIIIa, Val^158 allotype (human) (UniProt P08637). The assay is described as follows: SPR (Biacore): mAb captured on a surface coated with recombinant human CD30, FcRγIIIa Val158 (CD16-Val) flowed over, equilibrium signal fitted to a one-site model; Binding Constants (nM).
human FcRgammaIIIa, Val^158 allotype (human), sequence (P08637 17-208 F176V limits assumed): as the sequence (P08637 17-208 limits assumed) above, with F160V counted along it
Assay [11] addresses T1, human CD30 expressed on cells (L540, L428, L1236, Karpas cell lines; activated human peripheral blood cells) (human, UniProt P28908 19-595).
T1 sequence (looked up): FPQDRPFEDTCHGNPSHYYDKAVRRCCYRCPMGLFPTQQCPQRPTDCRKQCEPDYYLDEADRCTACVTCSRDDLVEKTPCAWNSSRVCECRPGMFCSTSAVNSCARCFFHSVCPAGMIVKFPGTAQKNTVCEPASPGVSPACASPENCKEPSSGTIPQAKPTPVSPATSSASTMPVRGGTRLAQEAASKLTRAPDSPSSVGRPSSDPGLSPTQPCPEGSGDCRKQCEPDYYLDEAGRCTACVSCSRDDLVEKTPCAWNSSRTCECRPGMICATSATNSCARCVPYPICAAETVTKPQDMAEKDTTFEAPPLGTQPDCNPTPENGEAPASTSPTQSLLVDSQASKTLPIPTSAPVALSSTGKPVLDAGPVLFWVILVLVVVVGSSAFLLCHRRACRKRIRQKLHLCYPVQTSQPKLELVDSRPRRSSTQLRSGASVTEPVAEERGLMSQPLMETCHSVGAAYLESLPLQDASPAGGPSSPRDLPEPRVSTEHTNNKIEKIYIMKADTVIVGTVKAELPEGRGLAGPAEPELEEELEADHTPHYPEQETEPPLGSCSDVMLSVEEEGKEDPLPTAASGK
Nature of the assay: cell-based or functional assay.

For assay [12], the target named is T1, human CD30 expressed on cells (L540, …). Nature of the assay: flow cytometry on CD30-expressing L540 cells, FITC anti-human secondary antibody.
The target in assay [13] is T2, cynomolgus CD30 on PHA, Con A and rIL-2 activated cynomolgus peripheral blood mononuclear cells (cynomolgus monkey, UniProt A0A2K5VW07 29-603).
T2 construct: whole, on cells
T2 sequence: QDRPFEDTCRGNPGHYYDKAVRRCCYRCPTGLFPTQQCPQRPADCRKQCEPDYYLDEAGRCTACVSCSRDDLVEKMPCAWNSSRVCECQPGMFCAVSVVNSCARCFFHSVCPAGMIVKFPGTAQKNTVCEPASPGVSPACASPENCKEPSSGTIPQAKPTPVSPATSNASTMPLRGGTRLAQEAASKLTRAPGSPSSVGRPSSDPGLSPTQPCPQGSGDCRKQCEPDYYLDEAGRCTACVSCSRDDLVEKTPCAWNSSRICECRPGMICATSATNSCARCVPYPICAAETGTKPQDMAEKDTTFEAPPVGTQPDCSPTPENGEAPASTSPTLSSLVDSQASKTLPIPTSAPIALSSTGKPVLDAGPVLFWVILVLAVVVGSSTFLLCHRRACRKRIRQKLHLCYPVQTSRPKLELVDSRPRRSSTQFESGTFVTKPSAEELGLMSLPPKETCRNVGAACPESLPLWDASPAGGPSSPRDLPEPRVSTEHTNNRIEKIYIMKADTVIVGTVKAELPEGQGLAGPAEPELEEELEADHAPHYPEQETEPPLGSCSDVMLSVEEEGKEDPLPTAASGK
The assay is described as follows: Scatchard analysis, 125I-labelled antibody on PHA/Con A/IL-2 activated cynomolgus peripheral blood mononuclear cells. The protocol:
(§1) Human or cynomolgus peripheral blood cells were stimulated with 2 μg/ml PHA, 10 μg/ml Con A, and 50 U/ml rIL-2 and cultured in RPMI1640 media containing 10% fetal bovine serum (FBS) at 1×10⁶ cells/ml density for 3 days. On the day of the study, the cells were washed and adjusted to 2×10⁷ cells/ml in binding buffer (RPMI1640+10% FBS). […] The cells were placed on ice until the initiation of the experiment. Millipore glass fiber filter plates (MAFBNOB50) were coated with 1% nonfat dry milk in water and stored a 4° C. overnight. The plates were washed three times with 0.2 ml of binding buffer. Fifty microliters of buffer alone was added to the maximum binding wells (total binding). Twenty-five microliters of buffer alone was added to the control wells. Varying concentration of ¹²⁵I-anti-CD30 antibody was added to all wells in a volume of 25 μl. Varying concentrations of unlabeled antibody at 300-400 fold excess were added in a volume of 25 μl to control wells (non-specific binding) and 25 μl of CD30 positive L540 cells or stimulated human or cynomolgus peripheral blood cells in binding buffer were added to all wells. The plates were incubated for 2 hours at 200 RPM on a shaker at 4° C. At the completion of the incubation the Millipore plates were washed twice with 0.2 ml of cold wash buffer (RPMI1640, 10% FBS, 500 mM NaCl). The filters were removed and counted in a gamma counter. […]

Assay [14] concerns the target T1, human CD30 expressed on cells (L540, …). The assay is described as follows: cell-based or functional assay. This is another data set of the same source.
The target is the same in assay [15]. Nature of the assay: Scatchard analysis, 125I-labelled antibody on PHA/Con A/IL-2 activated human peripheral blood cells. The protocol:
as §1

The target is the same in assay [16]. The assay is described as follows: Scatchard analysis, 125I-labelled antibody on L540 cells. The protocol: as §1

Molecule “fucosylated 5F11 human anti-CD30 monoclonal antibody produced in CHO DG44 cells” displayed a half-maximal effective concentration (EC50) in assay [1] of 0.18 µg/mL. Further, the equilibrium dissociation constant (Kd) in assay [2] was found to be 1090 nM. For the same molecule, the dissociation constant (Kd) in [3] was found to be 1.37 nM. For the same molecule, in assay [4], the Receptors Per Cell (ave) (receptors per cell) is 2.5e+06. This molecule yielded a dissociation constant (Kd) in assay [5] of 0.47 nM. For the same molecule, the Kd in assay [6] was found to be 1.08 nM. Moreover, the Receptors Per Cell (ave) (receptors per cell) in assay [7] was 45700. Further, in [8], the % Lysis, 51Cr release ADCC, Karpas cells, 25 µg/ml antibody, target:effector 1:50 came to 19%; the % Lysis, 51Cr release ADCC, L428 cells, 25 µg/ml antibody, target:effector 1:50 was 20%; the % Lysis, 51Cr release ADCC, L540 cells, 25 µg/ml antibody, target:effector 1:50 is 42%; the % Lysis, 51Cr release ADCC, L1236 cells, 25 µg/ml antibody, target:effector 1:50 was determined as 4%. Besides, in assay [8], the % cell lysis, ADCC, Karpas 299 cells, cynomolgus effector cells, 10 µg/mL antibody was 7% and 10%; the EC50 of ADCC, Karpas cells stood at 0.25 µg/mL; the EC50 of ADCC, L428 cells came to 0.1 µg/mL; the EC50 of ADCC, L540 cells was determined as 0.042 µg/mL. Besides, in assay [8], the EC50 of ADCC, L540 cells, heterozygous FcRγIIIaPhe/Val^158 human effector cells came out at 0.0589 µg/mL; the EC50 of ADCC, L540 cells, homozygous FcγIIIa Phe/Phe^158 effector cells worked out at 0.0337 µg/mL; the EC50 of ADCC, L1236 cells stood at 1.22 µg/mL; the maximal percent cell lysis, ADCC, L540 cells, heterozygous FcRγIIIaPhe/Val^158 human effector cells is 31%. In [8], the maximal percent cell lysis, ADCC, L540 cells, homozygous FcγIIIa Phe/Phe^158 effector cells is 15%. The same molecule had a Receptors Per Cell (ave) (receptors per cell) in [9] of 72800. In assay [10], the equilibrium dissociation constant (Kd) worked out at 177 nM.

B1: 5F11 LEX^Opt mAb (glyco-optimized 5F11 produced in Lemna minor with FucT/XylT RNAi, vector MDXA04) (antibody, V domains shown)
VH: QVQLQQWGAGLLKPSETLSLTCAVYGGSFSAYYWSWIRQPPGKGLEWIGDINHGGGTNYNPSLKSRVTISVDTSKNQFSLKLNSVTAADTAVYYCASLTAYWGQGSLVTVSS
VL: DIQMTQSPTSLSASVGDRVTITCRASQGISSWLTWYQQKPEKAPKSLIYAASSLQSGVPSRFSGSGSGTDFTLTISSLQPEDFATYYCQQYDSYPITFGQGTRLEIK
notes: N-glycans at Asn 297 are 95.8% GnGn (G0), with no fucosyl or xylosyl; also called MDXA04 derived mAb; glyco-optimized anti-CD30 mAb
For B1, in assay [11], the “EC50 of ADCC, L540 cells, FcγRIIIa Phe/Phe^158 effector cells” value was 0.0199 µg/mL; the “EC50 of ADCC, L540 cells, FcγRIIIa Val/Phe^158 effector cells” value is 0.0131 µg/mL; the “fold increase in ADCC activity compared to 5F11 CHO” value was 20 fold. The dissociation constant Kd in [2] was found to be 41 nM. Besides, a half-maximal response in assay [12] (EC50) required 0.196 µg/mL.

B2: defucosylated 5F11 human anti-CD30 monoclonal antibody produced in Ms704 (FUT8-/-) cells (antibody, V domains shown)
VH: QVQLQQWGAGLLKPSETLSLTCAVYGGSFSAYYWSWIRQPPGKGLEWIGDINHGGGTNYNPSLKSRVTISVDTSKNQFSLKLNSVTAADTAVYYCASLTAYWGQGSLVTVSS
VL: DIQMTQSPTSLSASVGDRVTITCRASQGISSWLTWYQQKPEKAPKSLIYAASSLQSGVPSRFSGSGSGTDFTLTISSLQPEDFATYYCQQYDSYPITFGQGTRLEIK
notes: also called defuc-5F11; defucosylated anti-CD30 antibody
As for B2, binding in [13] was put at a Kd of 0.83 nM. Besides, in assay [14], the “% Lysis ratio fucosyl-:fucosyl+, ADCC, Karpas cells” value was 2.63; the “% Lysis ratio fucosyl-:fucosyl+, ADCC, L428 cells” value was 2.15; the “% Lysis ratio fucosyl-:fucosyl+, ADCC, L540 cells” value amounted to 1.61; the “% Lysis ratio fucosyl-:fucosyl+, ADCC, L1236 cells” value is 3.25. Besides, in [14], the “EC50 of ADCC, Karpas cells” value amounted to 0.032 µg/mL; the “EC50 of ADCC, L428 cells” value was found to be 0.009 µg/mL; the “EC50 of ADCC, L540 cells” value was found to be 0.009 µg/mL; the “EC50 of ADCC, L1236 cells” value stood at 0.045 µg/mL. Besides, in assay [14], the “EC50 ratio fucosyl+:fucosyl-, ADCC, Karpas cells” value came out at 7.8; the “EC50 ratio fucosyl+:fucosyl-, ADCC, L428 cells” value worked out at 11.1; the “EC50 ratio fucosyl+:fucosyl-, ADCC, L540 cells” value worked out at 4.7; the “EC50 ratio fucosyl+:fucosyl-, ADCC, L1236 cells” value was 27.1. The molecule also showed a Kd in [15] of 2.66 nM. Further, in assay [16], the Kd came out at 1.93 nM.
